# Data taken from IntAct's records for PubMed 20956287.
# B1: SH2 domain-containing protein 3C (Mus musculus), Q9QZS8-1 (parent)
# chain: MTEMPKKTGRKFKFFKFKGLGSLSNLPRSFSLRRSSASASIRSCPEPDTFEATQDDMVTLPKSPPAYARSSDMYSHMGTMPRPNIKKAQKQQAVQKAQEVSRESHLVSRRLPEPPDLEAAKEAGEGTEALLEDTAPSAVEVDPMRELEDLTVDTEKEQVPGDVSPERTAAELEAAGDYVKFSKEKYILDSSPEKLHKELEEELKLSSTDLRSHAWYHGRIPREVSETLVQRNGDFLIRDSLTSLGDYVLTCRWHNQALHFKINKVVVKAGESYTHIRYLFEQESFDHVPALVRYHVGSRKAVSEQSGAIIYCPVNRTFPLRYLEASYGLSQGSSKTASPASPSGSKGSHMKRRSITMTDGLTTDKVTRSDGCPNSTSLPHPRDSIRNCALSMDQIPDLHSPLSPISESPSSPAYSTVTRVHAPSATPSTSAQPASPVARRSSEPQLCPGNTPKPPGESDRAPHASPSHTLCKASPSPSLSSYSDPDSGHYCQLQPPVRGSREQAAGETPRKARGSGERQKELLENGVSDGEWGKTFTVPVVEATSSFNLATFQSQLIPKENRPLEVALLRKVKELLSEVDARTLARHVTKVDCLVARILGVTKEMQTLMGVRWGMELLTLPHGRQLRLDLLERFHTMSIMLAVDILGCTGSAEERAALLHKTIQLAAELRGTMGNMFSFAAVMGALEMAQISRLEQTWMTLRQRHTEGAILYEKKLKPFLKSLNEGKEGPPLSNTTFPHVLPFITLLECDSAPAEGPEPWGSTEHGVEVVLAHLEAARTVAHHGGLYHTNAEVKLQGFQARPELLEVFSTEFQMRLLWGSQGANSSQAWRYEKFDKVLTALSHKLEPAIRSSEL
# partner: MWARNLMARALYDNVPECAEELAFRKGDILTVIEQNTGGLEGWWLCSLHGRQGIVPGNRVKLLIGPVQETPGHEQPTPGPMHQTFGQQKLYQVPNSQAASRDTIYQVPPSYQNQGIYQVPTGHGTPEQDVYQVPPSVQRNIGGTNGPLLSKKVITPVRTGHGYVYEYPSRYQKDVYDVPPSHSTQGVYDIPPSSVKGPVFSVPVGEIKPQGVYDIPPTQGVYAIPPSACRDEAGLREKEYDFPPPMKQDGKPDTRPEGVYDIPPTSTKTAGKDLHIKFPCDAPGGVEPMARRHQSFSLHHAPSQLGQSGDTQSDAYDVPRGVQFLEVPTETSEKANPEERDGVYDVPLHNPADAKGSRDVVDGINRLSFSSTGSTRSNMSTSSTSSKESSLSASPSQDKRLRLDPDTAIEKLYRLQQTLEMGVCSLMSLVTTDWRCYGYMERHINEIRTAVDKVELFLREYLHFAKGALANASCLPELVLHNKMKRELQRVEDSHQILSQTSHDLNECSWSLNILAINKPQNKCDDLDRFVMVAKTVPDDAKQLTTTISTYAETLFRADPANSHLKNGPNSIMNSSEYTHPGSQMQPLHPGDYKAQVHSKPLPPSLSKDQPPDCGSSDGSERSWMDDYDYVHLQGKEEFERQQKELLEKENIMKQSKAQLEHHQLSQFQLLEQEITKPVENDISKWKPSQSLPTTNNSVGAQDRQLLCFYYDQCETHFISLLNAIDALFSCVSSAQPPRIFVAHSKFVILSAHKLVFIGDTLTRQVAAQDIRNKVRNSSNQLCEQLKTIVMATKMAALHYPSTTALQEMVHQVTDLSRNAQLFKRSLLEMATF
# Variants of: B1
# Settings: with casl_mouse Nedd9, O35177
row,effect of a mutation on the interaction,Variant
1,disrupting interaction,Y787E
